Assay: soluble fraction after stress (log2 fold change); higher = more stays soluble; pooled small domains, quantitative proteomics
Conditions: stress: 75 degC
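Further: 20 min heating vs room temperature control held 20 min.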

HMGGVSTDKPLNWDADGTSKLTQEQIDYLRSTYDLSDMSKQDYYDLMADLTNMNAISIKDVISQYVK
soluble fraction (log2): -0.0294

HMADEIMYPVQVNGKVRAEIFVAADQSKNKELVLEMAKSEERVQKYLEEGNLIKEIFVPGRIVNLVI
soluble fraction (log2): 0.162

HMTKAILTANDVRNGDIVFWTADQRWSTSIDDAAIGYGKDDTDQLADAGKQAEAANTVVGAYLIALR
soluble fraction (log2): -0.102

HMIESFQNGLVEHDQFTRPNPWVTPNFSKIEVPSILLSGKHADIDLWKHQNSIENTKKNRPDLFKNYLKKN
soluble fraction (log2): -0.149

HMVRSEDLIGLQGRITLATDVETRGFVELSVKGSLLRRPALSLKGPLAKNTAVVVTASNDHTLEVEAL
soluble fraction (log2): -0.985

HMYEHLKALRESLGMTQAEFGESVGVAKSTYNNYEIGARDPKSDFWIAVAQRYGVTIDYLMGFSDDPKKT
soluble fraction (log2): -1.76

HMGTDFRPVFQYVDELVRAGEFTNLKGMIYFTDGRGIFPEKKPDYDAAFVFLDDGYDPPDVPVWAIKLVL
soluble fraction (log2): -0.0422

HMNIDEIIGKKAVVIESIDNLQGTGKVRYQGMEWTARAEEENDRIEKDAEVEIIAVKGVKLIVKMK
soluble fraction (log2): -0.384

HMSQSMEVLYTDLTDKDAAAIVEKLEEEKIPYQLEDQGTTILVPPGVKYTTRLKLAAEDLPKG
soluble fraction (log2): 0.0723

HMEVSLEDKMDYLTNYATTHKNFSFRNLLESSSGKIEVIVTFLAILELMKMGRINISQEHIFDDIIIESRI
soluble fraction (log2): -2.68

HMKKIFIDAPLDTMITIPKDTTHHLLTVFRHKMEKPVLVGGSDGRTGVYQIQDVVDGEASAKLVGDIQ
soluble fraction (log2): 0.738

HMEAPNELLVPEGARPARADRVLAAAFPEHSRTALQRAFDAGLVRRANLVLSRDTAVAGGDRIAFSLPAV
soluble fraction (log2): 0.0788

HMVEYIENINLSEKQKFIAHEILKEIRGRAIFLRDVGLDYLNLSRKAGTLSGGEAQRIRLATQIGSA
soluble fraction (log2): 0.198

HMDSTLDLVATQGGRLDQVLAEMIPEHSRNRLQHWIKAGRVLVDGQPVLEPKHKIYGGEDLAVRVD
soluble fraction (log2): 0.215

HMQGWREWDYSADLYINARVGGKIEPTENSPISRVYELDEPVSVVAFTSTRYFKLSSGDYIFAEYLSAQKV
soluble fraction (log2): -4.29

HMIDQNEDLLSGYIDEVLSQNPDKVNEYLKGKSGLIGFFMGQIKQKSATALDAALLKSQLETALEKLRIK
soluble fraction (log2): -0.14

HMSEEVKSQPISILDLSTRASNGLKNEGIETIGELVKYSEDELLGLDKFGQNSLKEIKKKLEEIGLTLKEH
soluble fraction (log2): 0.00703

HMPVEHVWHIAENGQTSGPYSKARMGRMAQEGQLTRDTHVWTPGQDGWMRAGDVTELAQLFT
soluble fraction (log2): 0.0383

HMSSKTKVEDLGLSTRTLNALIGGSIKTAGGLTRKSESDLLSLDGLGEKGITEIKEALENIGLSLK
soluble fraction (log2): 0.103

HMDNIKRGEMFYISRGGASYSGSEQHSDRPAVVVSNDKNNENSNVVEVVYMTTQPKTDLPTHVTVR
soluble fraction (log2): 0.0515

HMRATLTDETARVVQEPTSESISLTSLRKGEEFEIGKVIRKKKEVWVTVTTSSGVKGYISGDTHIF
soluble fraction (log2): 0.00739

HMTKNEFLASFQNELQKRHIPDWEDVVSEYEQHFALKQADGFSEEEIAAKLGAPAELAAQFEA
soluble fraction (log2): 0.155

HMFGSKDVKRAIEDYAAAMSSQPRALSAPQRKVLIRHLATSGLLQLRGAAKIVADELGISRASVYNALKV
soluble fraction (log2): -1.53

HMTIATLGERIRKLRKERGLTLAELAGDKLSKGMLSLIENNRAKPSMESLEYIAKRLGVEPAELLE
soluble fraction (log2): 0.0696

HMPFTLDGVNEGSRNDQAARMSGYLISKNLNMDFIKFFMQSWNRQNSPPLSQREINSVVDNVKRTHDRKNK
soluble fraction (log2): -1.88

HMAEPLYKQVKNKIIQNLTSDEWKPGSVIPSETKLAETYGVGVSTIRMAIGELVAARILIRRQGKGTFVSS
soluble fraction (log2): -2.1

HMNENYNLSKREKEVLDLLVNGKSYKVIATELAISYETVHSHIKKIYHKLHVSSIGEAVSKTIKQKIL
soluble fraction (log2): -3.11

HMDATGDPIADRILQALQLGELTRTQVNNVFQRHLAAARISQALNFLRSLKRADMRMEETAGRSGEVWFAI
soluble fraction (log2): -0.454

HMDVIDDAQAMEIALEDAGLSMDDLDRYELELHTKRSELVYSIELKSGTEEYEYDLRAADGTILKRDTDF
soluble fraction (log2): 0.0166

HMVSQELIMLGNRIREYRKERGFSQEILAEKSGVSTNTISRIEGGQMAMSVGILQRIVKALGVDANVMLG
soluble fraction (log2): -2.32

HMDNWYIAFNSFLSQNKLTAKNVSELTGLSKPTIDSYKQGKRKPTDENMQIIKDKLGFNISEILYN
soluble fraction (log2): -0.0615

HMGNYEEAILAFEAAIKIDPKNADAYRKLAEAYEKTGDEDAALRTLETGAEATGDRELADLAEKKRQELDA
soluble fraction (log2): -0.0773

HMSGKGEFDQLLRSGEYVQAFQRANANGNVTLRRQQLLNLARHQAASGVGSGAIESLSTIQRI
soluble fraction (log2): 0.00597

HMKSSISKNWNPSKDAIEILTRAGIDQEFLENLIPEFVIYWIERSDVLISYNSKFIEHARLKWAQHTAEIQ
soluble fraction (log2): 0.192

HMQAVKQIKVERGMTLEKIAQSEFGDSTRWGEIVEVNNLRAPYISDDPTETRDGVLKPGSNLLIPIP
soluble fraction (log2): -0.0397

HMGSKQVSVPDVRNLDYERASQQLREAGFVVGDVLRIRDDRAPAGTVIAQSPAAPALVPENARVSLLVSSG
soluble fraction (log2): 0.124

HMAAFGDLLSELRRDMNMTQDELAKVLFVSPGTISNYENNIHFPDVPKLKQIAQYFGVTTDYLLG
soluble fraction (log2): -0.519

HMVISNDEFEDYLNRATEQLVSELSSGKNPRDAVHDLALTFADQHNKSYDAYQRMADSLEARMHTL
soluble fraction (log2): 0.0871

HMDNTFEEVKEKLLDLLKERPLTPAEVSKRMEEDKNILAQVIQYLLEEEIIKTEDGMLSKVIG
soluble fraction (log2): -0.038

HMIMHLNQIIRNKRLAAGLTQEALAQKVGVTAPAVSKWEKGISYPDITLLPILARNLNTDVNTLLDFSA
soluble fraction (log2): -1.29

HMGPWTETAAKGDAVSKRMLITWLQENADAEFLAAQKLTGQATSVAKRVTKDQLVELYLSVTTAA
soluble fraction (log2): -1.42

HMFEDEYLETMYAFYETDPQALVRTGDLASSLKVSPASATEMVQRLASKGFVDYIPYKGASLTELGLAM
soluble fraction (log2): 0.0785

HMDSYSILGIEKESSMEDIEKAYIDKISKIKKEVKNEKNAAAFEAVLTKAYNDILSQKENISEEQELAE
soluble fraction (log2): 0.0885

HMDPTIRRGELIDAASRLFLSKGYAATSVRDILDEVGNRTASPSVFYYYFKSKEEIYQAVLRRHSE
soluble fraction (log2): -1.51

HMGSIEASFEEDVRRYLARKSMTTTEISKKMRQKRPDMSRDQLMTLLANAIKRIKPIKKKIKGTLYLSLE
soluble fraction (log2): -2.07

HMKFTPPTLEQIKNEMLLKTDEYNADIQSDRFFTYYDSNGWMVGKNKMKKFLVSLVAVFAATSA
soluble fraction (log2): -0.786

HMGDDVRKNILDVLSKFERVDITDLDSLELVRFYLEIEDIFDIEIKENDFYRLKSVDSIVDYIRNKSFF
soluble fraction (log2): -1.31

HMKKSGFFSAGDRIQLTDNKGRQYSFNITEGKEFHTHQGFIKHDDLIGMPEGSVVSINSTTGVVQKFMAF
soluble fraction (log2): 0.32

HMFTNSTSSRQLTNSDDTLRLNISSQTRQMLPNGQPFGGSLSGKLLLVIYGATTRSIPAQTTPEKIVV
soluble fraction (log2): -0.198

HMRMTRQRKVILEELGKVYTHPTADEIYTMVKEKLPNISLGTVYRNLDLLAENNQVLKLETAGNIRRYD
soluble fraction (log2): -0.17

HMENLVPVVVATTNIEPRTQITDAMVKVEQIPALGRNESMLEDPALVVGGYATGKIYAGQSFIQPMVSK
soluble fraction (log2): 0.351

HMVRSKLEIVPVPEDAVVKIAGLKRLTYQAYQNEDVPYMVYKNGYEAQSGTVFMDTDKTLTVTLEESP
soluble fraction (log2): -0.0399

HMGSLRSALDGIPGIGEQYQKRLLAQFGSVKAMRSASVEDFEAVRGIGRAKAQALYDALHAG
soluble fraction (log2): -0.221

HMEDKFEYQGERKSLIYPTSFSELTEALGVRNMLQSIIDFATRDEDTSGYEEMKERQNEYIQEYL
soluble fraction (log2): -0.0262

HMQMEYEKAIAYILDKIKSGELSIGSKLPAERVIADTLHIGRNSTREALSILHGMGMVDRVHGSGNYISEH
soluble fraction (log2): -0.752

HMEMTSREIIKRLEEDGWYHVKTTGDHYQMKHPTKPGKVTIVHPAKDLSIGTLRSIEKQSGVRL
soluble fraction (log2): -0.18

HMEVSTRQVRAALRDIIEAEDKKRPLSDEAITARLREQGLPVARRTVAKYREQMGILAARLRK
soluble fraction (log2): -0.662

HMKADIEQVQRAFDTLDPKNQQLVLDAMKAATAELDPNSDQFKTNTEFINDNQKALDRHAKAS
soluble fraction (log2): 0.122

HMFIKVEVPDLTGMTLTEVRKALEEKNLKMGDIRPAGQTSLVAKVINQSPQAKMVVDEYSEVSIQFEE
soluble fraction (log2): -0.985

HMTPSTVQVHVAGAVKNPGVYVLLENARNIDAITAAGGATSEADLERINLSEFIRDGQRVYVPYKGDPI
soluble fraction (log2): 0.459

HMKAPLTFVIEGKEYEAFDQYKTGAELKQLAGIPLDTELFLSISKPYQDELIENEKQVNLARPETEYFFVK
soluble fraction (log2): 0.522

HMSESLRDLVLSLIPEDGSTIGNRALITRLREDLPDLTDEDYHEVRDQLIAEGVLAKGRGQGGSVARANG
soluble fraction (log2): 0.311

HMRTVLSDETYLRIREMLLTHDIAPGERINIDALARELDVSQTPVREALARLESEDLVTKEPLRGYTATK
soluble fraction (log2): -0.0533

HMGAKEHLAGETLRMAVELLSEKQGIPAEQALIRFISSPVYDALYDLDTGMWTQGPTRLLEAFEALE
soluble fraction (log2): -2.01

HMNRIGERIKRKRELRNLNLGELAEKVGISASALSQIEKSKSFPSVITLKSIAEQLRTTVGELIGEN
soluble fraction (log2): -0.191

HMNQIDDADRKRVVDEVAGQFSSMSLTEMRSDREKLLSRIIPQVQTTLNRLGLQTIDVEGIAREVIARVG
soluble fraction (log2): -0.0822

HMYKDVVVPNTVGDSEEKAYQTLSALGLVVNITYDEDASKSDRVVTSQNPTNKTIKEGESVNIVVNKQP
soluble fraction (log2): 0.573

HMREPQMVTVNGDKVTHGHAYRSNVNPEDWYFTARINGQQLKPQKMEPADVAAYDKKEIGVPELMQR
soluble fraction (log2): -0.275

HMGGRTITVGISENMTVKDIAQMLEEKGLIEDARLFVVQELLSAYHKEIKPGIYDLSTDMTAAQMLEIMS
soluble fraction (log2): -0.443

HMFVEEGSLKKITFDTYEFNITDNLKSLRVTYQGLLPNLFREGQGVVIEGILLEQNYIQANTVF
soluble fraction (log2): 0.249

HMGSREVPFSDFISKVESGSVLEVVLRGRQVEGLTDANERFQTQIPNYPALFEILERNQVRTRVEPT
soluble fraction (log2): -0.0642

HMVEPIEESISQLSLLLQSLYEDGKSEVSFEELIRSDRSRVSLFLALLFMAQRGNVYLEQEELFGDLRVKN
soluble fraction (log2): 0.0329

HMINGTITFYDDTTLKGELSSLDTKYLFIIPNGLVMPEKIAVSDIEYFNLDNGITLIQDGISKQTY
soluble fraction (log2): -1.09

HMDVNKDLLGETLEKAKSYKADDWRKASYEALQKAIVEAEAVYKDEEADQVAVDRKVAALNKAINNLEAKG
soluble fraction (log2): 0.475

HMPQLVGDVDGDGRVSVTDGEWIRASYGALPWYAGWRAAADLDGSRKIDVVDLELLRTKMGN
soluble fraction (log2): -0.334

HMDIHSEEYILGQNIRKYRLRLGWSQADLSNAVDIDRADISKYENGAKGIMSSTLLRKFAKALGVSMDALM
soluble fraction (log2): -3.32

Reference: the domain aggregation screens of Martell et al. (2025)
